Assay [1] addresses HLA-B*48:01. Nature of the assay: IEDB peptide-MHC binding, purified MHC/competitive/fluorescence; filed as Kd, often an IC50 or EC50 that approximates it; ≥ and ≤ were set here for values at or beyond the usual limits of such assays. To be noted: source organism: Vibrio vulnificus YJ016.
Assay [2] deals with HLA-B*73:01. The assay is described as above. To be noted: source organism: Escherichia coli str. K-12 substr. MG1655.
For assay [3], the target named is HLA-B*15:01. The assay is described as follows: IEDB peptide-MHC binding, purified MHC/direct/fluorescence; filed as Kd, often an IC50 or EC50 that approximates it; ≥ and ≤ were set here for values at or beyond the usual limits of such assays.
For assay [4], the target named is HLA-A*01:01. The description is as above.
In assay [5] the target is HLA-B*07:02. The assay is described as above.
The target in assay [6] is HLA-A*30:01. The description is as above. As to conditions: source organism: Escherichia coli.
For assay [7], the target named is HLA-B*40:01. The description is as above. As to conditions: source organism: Escherichia coli.
The target in assay [8] is HLA-A*02:01. Described as above. To be noted: source organism: Escherichia coli.
The target in assay [9] is HLA-B*27:05. The description is as above.
For assay [10], the target named is HLA-A*26:01. Described as above. As to conditions: source organism: Escherichia coli.
Assay [11] concerns the target HLA-A*69:01. The description is as above. To be noted: source organism: Escherichia coli.
For assay [12], the target named is HLA-A*31:01. The description is as above.
Assay [13] has as its target HLA-B*08:01. The assay is described as above. To be noted: source organism: Escherichia coli.
The target in assay [14] is HLA-A*03:01. The description is as above. As to conditions: source organism: Escherichia coli.
In assay [15] the target is HLA-B*58:01. Described as above.
Assay [16] has as its target HLA-A*11:01. Described as above.
For assay [17], the target named is HLA-C*14:02. Nature of the assay: IEDB peptide-MHC binding, purified MHC/competitive/fluorescence; filed as Kd, often an IC50 or EC50 that approximates it; ≥ and ≤ were set here for values at or beyond the usual limits of such assays. As to conditions: source organism: Salmonella enterica subsp. enterica serovar Typhi.
Assay [18] concerns the target HLA-B*83:01. The description is as above. To be noted: source organism: Salmonella enterica subsp. enterica serovar Typhi.
Assay [19] has as its target HLA-B*15:42. The assay is described as above. To be noted: source organism: Salmonella enterica subsp. enterica serovar Typhi.
For assay [20], the target named is HLA-B*27:20. The assay is described as above. To be noted: source organism: Salmonella enterica subsp. enterica serovar Typhi.
The target of assay [21] is HLA-B*45:06. The description is as above. To be noted: source organism: Salmonella enterica subsp. enterica serovar Typhi.
Assay [22] addresses HLA-B*46:01. The description is as above. As to conditions: source organism: Salmonella enterica subsp. enterica serovar Typhi.
Assay [23] has as its target HLA-B*51:01. The assay is described as follows: IEDB peptide-MHC binding, purified MHC/direct/fluorescence; filed as Kd, often an IC50 or EC50 that approximates it; ≥ and ≤ were set here for values at or beyond the usual limits of such assays. To be noted: source organism: Salmonella enterica.
Assay [24] has as its target HLA-C*15:02. Described as above. As to conditions: source organism: Salmonella enterica subsp. enterica serovar Typhi str. CT18.
Assay [25] deals with HLA-C*06:02. Described as above.
The target in assay [26] is HLA-A*26:02. Nature of the assay: IEDB peptide-MHC binding, purified MHC/competitive/fluorescence; filed as Kd, often an IC50 or EC50 that approximates it; ≥ and ≤ were set here for values at or beyond the usual limits of such assays. As to conditions: source organism: Hepatovirus A.
In assay [27] the target is HLA-A*30:01. The assay is described as above. As to conditions: source organism: Hepatovirus A.
For assay [28], the target named is HLA-A*02:01. Described as above. To be noted: source organism: Hepatovirus A.
Assay [29] concerns the target HLA-A*68:02. The assay is described as above. As to conditions: source organism: Hepatovirus A.
Assay [30] concerns the target HLA-B*15:17. The assay is described as above. As to conditions: source organism: Hepatovirus A.
Assay [31] addresses HLA-B*15:09. The assay is described as above. As to conditions: source organism: Hepatovirus A.
Assay [32] has as its target HLA-B*08:01. The assay is described as above. To be noted: source organism: Hepatovirus A.
Assay [33] concerns the target HLA-B*39:01. The assay is described as above. To be noted: source organism: Hepatovirus A.
The target of assay [34] is HLA-A*02:03. The description is as above. To be noted: source organism: Hepatovirus A.
The target in assay [35] is HLA-B*35:01. Nature of the assay: IEDB peptide-MHC binding, purified MHC/direct/fluorescence; filed as Kd, often an IC50 or EC50 that approximates it; ≥ and ≤ were set here for values at or beyond the usual limits of such assays. To be noted: source organism: Hepatovirus A.
Assay [36] concerns the target HLA-B*57:01. Described as above. To be noted: source organism: Hepatovirus A.
The target of assay [37] is HLA-B*15:02. The assay is described as above. To be noted: source organism: Hepatovirus A.
Assay [38] concerns the target HLA-C*12:03. Described as above. To be noted: source organism: Hepatovirus A.
The target in assay [39] is HLA-A*26:03. Described as above. To be noted: source organism: Hepatovirus A.
Assay [40] addresses HLA-B*48:01. The description is as above. As to conditions: source organism: Hepatovirus A.
Assay [41] addresses HLA-B*46:01. The assay is described as above. To be noted: source organism: Hepatovirus A.
Where [42] appears, read: source organism: Escherichia coli.

This note sets out measurements from the Immune Epitope Database (IEDB).

In assay [1], DEHPWQPML gave a Kd of no less than 20000 nM.
With RRRIGEIFK, the Kd in [2] was no less than 20000 nM; in [3] (setting [42]) it was no less than 20000 nM; in [4] (setting [42]), no less than 20000 nM; in assay [5] (setting [42]), no less than 20000 nM; in assay [6], 5.86 nM; in [7] it was no less than 20000 nM. Besides, the Kd in assay [8] is no less than 20000 nM; in assay [9] (setting [42]), 64.2 nM; in assay [10], no less than 20000 nM; in assay [11], no less than 20000 nM; in [12] (setting [42]), no less than 20000 nM; in [13] it was no less than 20000 nM. The Kd in assay [14], in assay [15] (setting [42]) and in [16] (setting [42]) was no less than 20000 nM in each case.
Take YLRNAGAAM: the Kd in assay [17] was 3.6 nM; in assay [18], no less than 5000 nM; in [19], no less than 5000 nM; in assay [20] it was 186 nM; in [21] it was no less than 5000 nM; in [22], 54.7 nM. The Kd in assay [3] (source organism: Salmonella enterica subsp. enterica serovar Typhimurium str. LT2) is 31 nM; in assay [5] (source organism: Salmonella enterica) it was 1.3 nM; in [23], no less than 20000 nM; in assay [24], 3590 nM; in [25] (source organism: Salmonella enterica subsp. enterica serovar Typhi str. CT18), 3620 nM.
Regarding YMYAVSGAL, the Kd in assay [26] is 4580 nM; in assay [27] it was 4140 nM; in [28], 3.7 nM; in assay [29], 2120 nM; in assay [30], 181 nM; in [31], 322 nM. Also, the Kd is 830 nM in assay [32]; 1.5 nM in assay [33]; 1.6 nM in assay [34]; 11.6 nM in [3] (source organism: Hepatovirus A); no less than 20000 nM in assay [4] (source organism: Hepatovirus A); no less than 20000 nM in assay [5] (source organism: Hepatovirus A). In addition, the Kd is 449 nM in [35]; no less than 20000 nM in assay [9] (source organism: Hepatovirus A); no less than 20000 nM in assay [36]; 5 nM in [37]; 231 nM in assay [38]; no less than 20000 nM in assay [12] (source organism: Hepatovirus A). The Kd is no less than 20000 nM in assay [39]; no less than 20000 nM in assay [15] (source organism: Hepatovirus A); no less than 20000 nM in assay [16] (source organism: Hepatovirus A); 15.6 nM in assay [40]; no less than 20000 nM in [25] (source organism: Hepatovirus A); 1770 nM in [41].
